Measurements from US20050032185.

Key:
[1] = test system: GST-PKBα (full length human protein kinase Bα with N-terminal glutathione S-transferase, from unstimulated 293 cells) [GST: P08515]
[2] = target: GST-ΔPH-PKBα (residues 118-479 of human PKBα, lacking the PH domain) (UniProt P31749)
[3] = target: HA-PKBα (haemagglutinin epitope-tagged human PKBα expressed in 293 cells) (UniProt P31749)
HA-PKBα (haemagglutinin epitope-tagged human PKBα expressed in 293 cells), sequence (P31749 whole entry, looked up): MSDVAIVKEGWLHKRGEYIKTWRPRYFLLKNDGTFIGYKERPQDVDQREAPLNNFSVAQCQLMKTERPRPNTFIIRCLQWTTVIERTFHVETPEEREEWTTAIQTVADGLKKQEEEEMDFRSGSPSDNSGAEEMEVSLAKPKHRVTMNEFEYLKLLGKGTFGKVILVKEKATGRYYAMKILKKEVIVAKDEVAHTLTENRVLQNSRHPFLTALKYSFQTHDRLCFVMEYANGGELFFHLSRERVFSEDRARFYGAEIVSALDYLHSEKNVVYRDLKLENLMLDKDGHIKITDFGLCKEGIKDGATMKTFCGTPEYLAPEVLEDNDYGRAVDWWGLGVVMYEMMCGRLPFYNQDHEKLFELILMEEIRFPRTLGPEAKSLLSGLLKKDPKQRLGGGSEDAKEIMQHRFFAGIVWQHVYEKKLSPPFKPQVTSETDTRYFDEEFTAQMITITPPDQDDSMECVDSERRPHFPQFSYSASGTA

GST-PKBα (full length human protein kinase Bα with N-terminal glutathione S-transferase, from unstimulated 293 cells) [GST: P08515], sequence (P08515 whole entry, looked up, the tested form may be a part): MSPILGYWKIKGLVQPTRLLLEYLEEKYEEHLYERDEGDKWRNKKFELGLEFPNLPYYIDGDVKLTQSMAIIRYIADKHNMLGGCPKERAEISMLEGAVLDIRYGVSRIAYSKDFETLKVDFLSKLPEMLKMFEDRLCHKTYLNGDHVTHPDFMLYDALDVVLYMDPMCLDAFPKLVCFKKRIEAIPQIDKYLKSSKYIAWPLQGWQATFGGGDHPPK
GST-ΔPH-PKBα (residues 118-479 of human PKBα, lacking the PH domain), sequence (P31749 whole entry, looked up, stated change not applied, the tested form may be a part): as the sequence (P31749 whole entry, looked up) above

GST-D223A-PDK1 (full length catalytically inactive human PDK1, Asp223 changed to Ala)
phosphorylation and activation of GST-PKBα [1]: did not phosphorylate or active GST-PKBα in the presence of PtdCho/PtdSer lipid vesicles containing PtdIns(3,4,5)P3 (data not shown)

GST-ΔPH-PDK1 (residues 1-450 of human PDK1, lacking the putative C-terminal PH domain)
rate of activation of GST-PKBα by GST-ΔPH-PDK1 compared to full length wild-type GST-PDK1 [1]: the rate of activation was reduced about 30-fold compared to full length wild-type GST-PDK1

PtdIns(3,4,5)P3-dependent protein kinase-1 (PDK1) purified from rabbit skeletal muscle
activation and phosphorylation of GST-ΔPH-PKBα [2]: also activated and phosphorylated GST-ΔPH-PKBα in a PtdIns(3,4,5)P3 independent manner (data not shown) | phosphorylation of immunoprecipitated HA-PKB by PDK1 [3]: immunoprecipitated HA-PKB was not phosphorylated effectively by PDK1 | fold increase in GST-PKBα activity with sn-1,2-dilinoleoyl D-PtdIns(3,4,5)P3 [1]: causing a 36-fold increase in GST-PKBα activity | fold increase in GST-PKBα activity with sn-1,2-dipalmitoyl PtdIns(3,4)P2 (lipid 7) [1]: both inositol phospholipids increasing GST-PKBα activity about 6-fold | fold increase in GST-PKBα activity with sn-1,2-dipalmitoyl PtdIns(3,4,5)P3 (lipid 6) [1]: both inositol phospholipids increasing GST-PKBα activity about 6-fold | increase in GST-PKBα activity [1]: a >30-fold increase in activity | phosphorylation of GST-PKBα (mol 32P per mol protein) [1]: to a level approaching 0.7 moles of 32 P/mol protein | phosphorylation of GST-PKBα (mol/mol) in the sample used for site mapping [1]: phosphorylated to 0.4-0.6 mol/mol with PDK1 | specific activity of GST-PKBα reached after phosphorylation by PDK1 [1]: reached a specific activity of 80 U/mg | specific activity of PDK1 after Mono S (units of GST-PKBα activation per mg) [1]: 69500 U/mg | specific activity towards GST-PKBα in the presence of PtdIns(3,4,5)P3 [1]: PDK1 purified from rabbit skeletal muscle (100 000 U/mg)
